IntAct's records for PubMed 29997244

B1: DnaJ homolog subfamily C member 5 (Homo sapiens), Q9H3Z4 (parent)
chain: MADQRQRSLSTSGESLYHVLGLDKNATSDDIKKSYRKLALKYHPDKNPDNPEAADKFKEINNAHAILTDATKRNIYDKYGSLGLYVAEQFGEENVNTYFVLSSWWAKALFVFCGLLTCCYCCCCLCCCFNCCCGKCKPKAPEGEETEFYVSPEDLEAQLQSDEREATDTPIVIQPASATETTQLTADSHPSYHTDGFN
partner: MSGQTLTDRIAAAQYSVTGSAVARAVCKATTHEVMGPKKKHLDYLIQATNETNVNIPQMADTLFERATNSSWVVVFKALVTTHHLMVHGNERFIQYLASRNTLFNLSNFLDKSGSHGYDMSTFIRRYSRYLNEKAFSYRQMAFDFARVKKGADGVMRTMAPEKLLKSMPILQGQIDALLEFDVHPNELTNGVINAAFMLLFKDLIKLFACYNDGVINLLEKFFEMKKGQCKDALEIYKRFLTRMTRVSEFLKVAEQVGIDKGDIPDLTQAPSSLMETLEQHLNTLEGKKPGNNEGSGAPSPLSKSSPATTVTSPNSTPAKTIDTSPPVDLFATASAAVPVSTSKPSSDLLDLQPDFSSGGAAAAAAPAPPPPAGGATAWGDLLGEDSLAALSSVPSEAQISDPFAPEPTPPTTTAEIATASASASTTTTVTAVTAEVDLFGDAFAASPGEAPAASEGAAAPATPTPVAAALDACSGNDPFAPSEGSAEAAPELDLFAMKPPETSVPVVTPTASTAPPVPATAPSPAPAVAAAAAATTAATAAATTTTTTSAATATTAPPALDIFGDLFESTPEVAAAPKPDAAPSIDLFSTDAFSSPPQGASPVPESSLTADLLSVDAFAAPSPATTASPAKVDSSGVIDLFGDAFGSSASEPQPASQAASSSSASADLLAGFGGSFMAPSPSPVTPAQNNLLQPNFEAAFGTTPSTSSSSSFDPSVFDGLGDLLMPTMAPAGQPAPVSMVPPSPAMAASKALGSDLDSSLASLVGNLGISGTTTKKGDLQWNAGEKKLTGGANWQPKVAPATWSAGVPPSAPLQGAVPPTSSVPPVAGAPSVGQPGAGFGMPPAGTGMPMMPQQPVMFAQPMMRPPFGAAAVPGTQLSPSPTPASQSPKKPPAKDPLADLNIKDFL
B2: DnaJ homolog subfamily C member 5 (Homo sapiens), Q9H3Z4 (parent)
chain: B1 chain
partner: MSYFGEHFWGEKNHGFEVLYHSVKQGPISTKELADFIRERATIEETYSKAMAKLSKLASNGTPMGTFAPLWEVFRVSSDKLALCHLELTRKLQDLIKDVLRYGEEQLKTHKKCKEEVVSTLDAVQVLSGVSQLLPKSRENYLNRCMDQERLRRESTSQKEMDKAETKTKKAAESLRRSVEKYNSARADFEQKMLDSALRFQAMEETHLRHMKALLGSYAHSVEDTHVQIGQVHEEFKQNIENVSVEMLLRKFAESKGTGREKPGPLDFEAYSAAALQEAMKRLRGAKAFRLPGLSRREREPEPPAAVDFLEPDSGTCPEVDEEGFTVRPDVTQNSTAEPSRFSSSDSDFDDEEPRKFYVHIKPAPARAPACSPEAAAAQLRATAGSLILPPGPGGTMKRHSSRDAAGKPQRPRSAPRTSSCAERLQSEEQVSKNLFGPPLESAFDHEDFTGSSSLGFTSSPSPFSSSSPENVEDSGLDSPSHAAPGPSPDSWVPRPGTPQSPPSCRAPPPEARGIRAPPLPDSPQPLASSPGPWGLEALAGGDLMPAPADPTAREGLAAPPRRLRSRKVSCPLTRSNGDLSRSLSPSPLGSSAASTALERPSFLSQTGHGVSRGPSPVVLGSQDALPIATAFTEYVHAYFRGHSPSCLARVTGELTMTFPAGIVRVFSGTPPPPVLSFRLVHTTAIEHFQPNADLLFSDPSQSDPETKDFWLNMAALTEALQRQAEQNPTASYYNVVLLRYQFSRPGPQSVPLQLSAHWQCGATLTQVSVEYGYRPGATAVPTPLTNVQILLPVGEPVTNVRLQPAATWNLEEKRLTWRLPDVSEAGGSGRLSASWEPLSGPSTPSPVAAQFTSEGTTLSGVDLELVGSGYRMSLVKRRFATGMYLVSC
B3: DnaJ homolog subfamily C member 5 (Homo sapiens), Q9H3Z4 (parent)
chain: B1 chain
partner: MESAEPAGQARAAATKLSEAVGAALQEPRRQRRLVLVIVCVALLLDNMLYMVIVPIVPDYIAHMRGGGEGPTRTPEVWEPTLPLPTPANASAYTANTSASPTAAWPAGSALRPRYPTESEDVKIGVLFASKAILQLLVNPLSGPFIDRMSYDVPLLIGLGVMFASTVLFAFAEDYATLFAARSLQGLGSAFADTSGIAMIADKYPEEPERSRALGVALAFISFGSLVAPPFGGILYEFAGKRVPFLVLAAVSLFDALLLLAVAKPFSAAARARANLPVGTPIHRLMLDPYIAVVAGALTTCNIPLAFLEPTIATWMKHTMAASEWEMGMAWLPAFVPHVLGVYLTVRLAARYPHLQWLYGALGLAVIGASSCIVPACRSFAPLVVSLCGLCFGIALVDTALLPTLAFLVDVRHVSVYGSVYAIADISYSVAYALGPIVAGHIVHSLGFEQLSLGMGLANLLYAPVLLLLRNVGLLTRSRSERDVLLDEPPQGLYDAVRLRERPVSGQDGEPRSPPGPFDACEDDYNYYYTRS
B4: DnaJ homolog subfamily C member 5 (Homo sapiens), Q9H3Z4 (parent)
chain: B1 chain
partner: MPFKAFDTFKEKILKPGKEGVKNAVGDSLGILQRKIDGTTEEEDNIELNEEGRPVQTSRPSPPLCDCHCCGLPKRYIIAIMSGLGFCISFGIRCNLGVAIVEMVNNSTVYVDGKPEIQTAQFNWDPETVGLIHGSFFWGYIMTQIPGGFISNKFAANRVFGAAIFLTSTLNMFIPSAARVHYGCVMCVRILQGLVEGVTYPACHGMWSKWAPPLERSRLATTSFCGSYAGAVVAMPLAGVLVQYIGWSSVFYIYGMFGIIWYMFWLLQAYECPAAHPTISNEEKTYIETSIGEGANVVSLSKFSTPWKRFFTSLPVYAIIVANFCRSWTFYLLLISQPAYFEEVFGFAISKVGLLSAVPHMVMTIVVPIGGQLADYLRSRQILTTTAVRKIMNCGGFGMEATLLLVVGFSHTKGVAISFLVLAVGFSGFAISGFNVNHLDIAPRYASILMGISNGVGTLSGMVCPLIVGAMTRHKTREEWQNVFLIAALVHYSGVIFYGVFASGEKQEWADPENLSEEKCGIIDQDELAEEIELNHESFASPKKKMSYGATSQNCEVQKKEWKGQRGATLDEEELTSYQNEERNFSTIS
B5: DnaJ homolog subfamily C member 5 (Homo sapiens), Q9H3Z4 (parent)
chain: B1 chain
partner: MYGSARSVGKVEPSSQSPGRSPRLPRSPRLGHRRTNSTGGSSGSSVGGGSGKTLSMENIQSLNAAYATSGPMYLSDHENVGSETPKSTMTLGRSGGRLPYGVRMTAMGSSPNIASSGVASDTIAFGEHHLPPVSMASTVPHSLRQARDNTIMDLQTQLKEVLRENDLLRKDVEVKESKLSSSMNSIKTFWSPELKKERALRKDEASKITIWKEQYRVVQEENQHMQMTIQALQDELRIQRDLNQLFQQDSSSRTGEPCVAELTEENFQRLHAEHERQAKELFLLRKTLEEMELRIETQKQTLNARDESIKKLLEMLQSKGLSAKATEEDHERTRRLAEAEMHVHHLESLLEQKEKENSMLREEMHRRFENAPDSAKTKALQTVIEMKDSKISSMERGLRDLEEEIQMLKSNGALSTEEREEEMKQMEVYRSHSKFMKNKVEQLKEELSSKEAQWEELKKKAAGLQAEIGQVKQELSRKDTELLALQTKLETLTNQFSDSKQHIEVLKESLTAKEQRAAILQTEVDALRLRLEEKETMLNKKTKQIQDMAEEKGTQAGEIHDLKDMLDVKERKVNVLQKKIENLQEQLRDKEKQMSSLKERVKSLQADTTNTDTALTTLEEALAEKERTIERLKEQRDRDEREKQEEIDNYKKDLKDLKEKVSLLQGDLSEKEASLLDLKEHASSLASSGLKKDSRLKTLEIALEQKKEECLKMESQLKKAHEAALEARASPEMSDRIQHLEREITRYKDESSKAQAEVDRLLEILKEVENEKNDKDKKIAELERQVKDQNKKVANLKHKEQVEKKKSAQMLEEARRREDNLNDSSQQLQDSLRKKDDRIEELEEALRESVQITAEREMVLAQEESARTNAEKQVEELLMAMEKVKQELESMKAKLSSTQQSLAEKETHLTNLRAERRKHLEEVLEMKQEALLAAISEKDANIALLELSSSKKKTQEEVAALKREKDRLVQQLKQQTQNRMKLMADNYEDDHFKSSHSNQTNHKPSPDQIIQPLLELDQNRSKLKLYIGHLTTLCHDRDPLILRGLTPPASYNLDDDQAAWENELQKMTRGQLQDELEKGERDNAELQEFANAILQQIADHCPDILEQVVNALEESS
B6: DnaJ homolog subfamily C member 5 (Homo sapiens), Q9H3Z4 (parent)
chain: B1 chain
partner: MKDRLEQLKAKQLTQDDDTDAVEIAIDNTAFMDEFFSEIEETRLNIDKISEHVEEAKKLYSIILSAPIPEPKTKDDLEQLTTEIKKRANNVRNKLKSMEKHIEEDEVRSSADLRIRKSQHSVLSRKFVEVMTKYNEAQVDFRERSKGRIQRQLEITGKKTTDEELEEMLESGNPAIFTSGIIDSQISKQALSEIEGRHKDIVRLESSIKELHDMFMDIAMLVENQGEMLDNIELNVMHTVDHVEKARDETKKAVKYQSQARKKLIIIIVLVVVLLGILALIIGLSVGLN
B7: DnaJ homolog subfamily C member 5 (Homo sapiens), Q9H3Z4 (parent)
chain: B1 chain
partner: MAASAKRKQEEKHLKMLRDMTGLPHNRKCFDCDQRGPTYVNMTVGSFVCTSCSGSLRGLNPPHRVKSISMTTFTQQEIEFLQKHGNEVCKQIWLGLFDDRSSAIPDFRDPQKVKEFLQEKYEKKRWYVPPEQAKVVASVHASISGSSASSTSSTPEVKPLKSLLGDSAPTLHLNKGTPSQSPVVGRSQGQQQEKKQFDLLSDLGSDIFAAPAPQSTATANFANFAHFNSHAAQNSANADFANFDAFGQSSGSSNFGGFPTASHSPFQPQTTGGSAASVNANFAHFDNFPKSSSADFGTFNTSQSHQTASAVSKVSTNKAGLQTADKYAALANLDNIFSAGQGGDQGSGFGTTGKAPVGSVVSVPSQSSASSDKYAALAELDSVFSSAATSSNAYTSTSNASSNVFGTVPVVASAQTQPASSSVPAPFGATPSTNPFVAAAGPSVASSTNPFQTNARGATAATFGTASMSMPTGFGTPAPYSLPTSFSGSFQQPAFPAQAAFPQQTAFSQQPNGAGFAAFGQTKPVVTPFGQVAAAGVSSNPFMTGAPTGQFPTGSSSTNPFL
B8: DnaJ homolog subfamily C member 5 (Homo sapiens), Q9H3Z4 (parent)
chain: B1 chain
partner: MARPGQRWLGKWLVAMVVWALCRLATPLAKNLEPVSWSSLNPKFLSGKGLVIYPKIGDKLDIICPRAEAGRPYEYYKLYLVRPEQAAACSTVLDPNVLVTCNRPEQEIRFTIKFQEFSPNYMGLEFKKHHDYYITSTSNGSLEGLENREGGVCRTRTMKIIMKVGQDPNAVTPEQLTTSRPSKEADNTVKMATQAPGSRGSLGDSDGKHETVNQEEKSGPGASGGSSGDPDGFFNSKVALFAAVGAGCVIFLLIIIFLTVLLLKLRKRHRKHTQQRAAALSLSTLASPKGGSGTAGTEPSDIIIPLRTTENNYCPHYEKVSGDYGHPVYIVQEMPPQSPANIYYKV

Variants of: B1
Conditions: with ap180_human SNAP91, O60641

Row | Variant | effect of a mutation on the interaction
1 | L115R | with no effect

Variants of: B2
Conditions: with fcho1_human FCHO1, O14526

Row | Variant | effect of a mutation on the interaction
2 | L115R | decreasing interaction strength

Variants of: B3
Conditions: with vacht_human SLC18A3, Q16572

Row | Variant | effect of a mutation on the interaction
3 | L115R | with no effect

Variants of: B4
Conditions: with vglu3_human SLC17A8, Q8NDX2

Row | Variant | effect of a mutation on the interaction
4 | L115R | with no effect

Variants of: B5
Conditions: with rb6i2_human ERC1, Q8IUD2

Row | Variant | effect of a mutation on the interaction
5 | L115R | with no effect

Variants of: B6
Conditions: with stx3_human STX3, Q13277

Row | Variant | effect of a mutation on the interaction
6 | L115R | with no effect

Variants of: B7
Conditions: with agfg1_human AGFG1, P52594

Row | Variant | effect of a mutation on the interaction
7 | L115R | with no effect

Variants of: B8
Conditions: with efnb1_human EFNB1, P98172

Row | Variant | effect of a mutation on the interaction
8 | L115R | decreasing interaction strength
